This is an account of results in US20250034219A1 (MOZZA FOODS, published 2025).

Data set [1] concerns T1, recombinant B. taurus αS1-casein expressed from pMOZ1066 (GY1 signal peptide, αS1-casein, FLAG tag, 6 histidine tag, HDEL peptide).
T1 sequence: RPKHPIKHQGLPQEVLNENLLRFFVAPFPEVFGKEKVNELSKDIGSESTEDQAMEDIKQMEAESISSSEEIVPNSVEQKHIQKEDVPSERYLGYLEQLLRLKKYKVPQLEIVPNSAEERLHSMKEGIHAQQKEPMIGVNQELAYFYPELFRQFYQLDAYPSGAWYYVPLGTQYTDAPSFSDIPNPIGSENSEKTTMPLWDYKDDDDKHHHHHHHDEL

Data set [2] has as its system T2, recombinant B. taurus β-casein expressed from pMOZ1066 (GY1 signal peptide, β-casein, FLAG tag, 6 histidine tag, HDEL peptide).
T2 sequence: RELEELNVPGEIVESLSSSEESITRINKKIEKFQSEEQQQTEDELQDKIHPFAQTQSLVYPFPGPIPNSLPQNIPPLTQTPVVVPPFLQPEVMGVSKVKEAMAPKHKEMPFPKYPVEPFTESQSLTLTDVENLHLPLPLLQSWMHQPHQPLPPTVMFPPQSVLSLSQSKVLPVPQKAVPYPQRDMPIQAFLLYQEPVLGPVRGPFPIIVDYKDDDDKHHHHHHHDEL

Data set [3] concerns the target T3, recombinant B. taurus αS1-casein expressed from pMOZ1066 (GY1 signal peptide, αS1-casein, FLAG tag, 6 … (B. taurus)).
T3 construct: also called Alpha S1 casein; alphaS1 casein
T3 chain: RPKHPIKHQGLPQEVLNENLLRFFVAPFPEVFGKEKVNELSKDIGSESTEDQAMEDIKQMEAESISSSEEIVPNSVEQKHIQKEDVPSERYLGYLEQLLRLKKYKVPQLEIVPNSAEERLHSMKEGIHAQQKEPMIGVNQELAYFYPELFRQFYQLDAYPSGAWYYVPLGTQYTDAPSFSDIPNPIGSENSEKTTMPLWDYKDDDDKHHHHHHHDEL
The data set is described as follows: TEM with FLAG immunogold labelling of soy embryos; micelle of αS1, β and κ casein in vivo.

For data set [4], the target named is T4, recombinant B. taurus Beta Casein expressed from pMOZ702 (signal peptide, beta casein, HA tag, 6 histidine tag, HDEL peptide).
T4 chain: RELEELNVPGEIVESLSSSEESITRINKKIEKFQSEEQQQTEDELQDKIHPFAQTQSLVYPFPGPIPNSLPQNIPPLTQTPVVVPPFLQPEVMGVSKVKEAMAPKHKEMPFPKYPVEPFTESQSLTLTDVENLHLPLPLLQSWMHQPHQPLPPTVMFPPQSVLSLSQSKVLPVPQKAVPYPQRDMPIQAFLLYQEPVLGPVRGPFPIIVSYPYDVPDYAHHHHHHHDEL

For data set [5], the system named is T5, recombinant B. taurus Beta Casein expressed from pMOZ702 (signal peptide, beta casein, HA tag, 6 histidine tag, HDEL peptide).
T5 sequence: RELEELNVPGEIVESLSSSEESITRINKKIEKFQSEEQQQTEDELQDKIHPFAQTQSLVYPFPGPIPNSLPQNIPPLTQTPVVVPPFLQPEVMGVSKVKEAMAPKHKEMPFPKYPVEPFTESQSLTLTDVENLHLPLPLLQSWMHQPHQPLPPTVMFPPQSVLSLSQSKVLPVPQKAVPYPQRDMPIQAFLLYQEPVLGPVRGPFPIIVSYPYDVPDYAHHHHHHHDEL
The source holds these as a separate data set.

For “recombinant B. taurus Fam20C expressed from pMOZ1066”, the “phosphorylation by mass spectrometry in 1066 milk” value in data set [1] is “Phosphorylation of alphaSI casein was not detected in 1066 milk (data not shown)”. Moreover, the “phosphosite detected by mass spectrometry in 1066 milk” value in data set [2] was “only one phosphosite S50-p was detected to be phosphorylated in beta casein in both 1066 milk and raw milk (data not shown)”.

B1: recombinant B. taurus β-casein expressed from pMOZ1066 (GY1 signal peptide, β-casein, FLAG tag, 6 histidine tag, HDEL peptide) (other)
chain: RELEELNVPGEIVESLSSSEESITRINKKIEKFQSEEQQQTEDELQDKIHPFAQTQSLVYPFPGPIPNSLPQNIPPLTQTPVVVPPFLQPEVMGVSKVKEAMAPKHKEMPFPKYPVEPFTESQSLTLTDVENLHLPLPLLQSWMHQPHQPLPPTVMFPPQSVLSLSQSKVLPVPQKAVPYPQRDMPIQAFLLYQEPVLGPVRGPFPIIVDYKDDDDKHHHHHHHDEL
modifications: S50-p (phosphosite detected by mass spectrometry in 1066 milk; numbering not stated)
notes: Co-expressed with BtFam20C in soybean; also called Beta casein
Take B1: in data set [3], the binding result is “binds”.

B2: recombinant H. sapiens Fam20C expressed from pMOZ11 (protein)
chain: LDLLPRLERRGARPSGEPGCSCAQPAAEVAAPGWAQVRGRPGEPPAASSAAGDAGWPNKHTLRILQDFSSDPSSNLSSHSLEKLPPAAEPAERALRGRDPGALRPHDPAHRPLLRDPGPRRSESPPGPGGDASLLARLFEHPLYRVAVPPLTEEDVLFNVNSDTRLSPKAAENPDWPHAGAEGAEFLSPGEAAVDSYPNWLKFHIGINRYELYSRHNPAIEALLHDLSSQRITSVAMKSGGTQLKLIMTFQNYGQALFKPMKQTREQETPPDFFYFSDYERHNAEIAAFHLDRILDFRRVPPVAGRMVNMTKEIRDVTRDKKLWRTFFISPANNICFYGECSYYCSTEHALCGKPDQIEGSLAAFLPDLSLAKRKTWRNPWRRSYHKRKKAEWEVDPDYCEEVKQTPPYDSSHRILDVMDMTIFDFLMGNMDRHHYETFEKFGNETFIIHLDNGRGFGKYSHDELSILVPLQQCCRIRKSTYLRLQLLAKEEYKLSLLMAESLRGDQVAPVLYQPHLEALDRRLRVVLKAVRDCVERNGLHSVVDDDLDTEHRAASARHDEL
In the case of B2, in data set [4], the “upward band shift of beta casein on anti-beta-casein Western blot (2 human kinases together, pMOZ702+pMOZ11+pMOZ12)” value is “In lanes containing beta casein coexpressed with 1 human kinase, 2 human kinases, 1 bovine kinase or 2 bovine kinases the bands are shifted upward on the gel relative to the sample transformed with only beta casein”; the “upward band shift of beta casein on anti-beta-casein Western blot (co-expressed with HsFam20C and HsFam20A together, pMOZ702+pMOZ11+pMOZ12)” value is “In lanes containing beta casein coexpressed with 2 human kinases the bands are shifted upward on the gel relative to the sample transformed with only beta casein”.

B3: recombinant B. taurus Fam20C expressed from pMOZ14 (enzyme, from a related filing)
chain: MLLPKLERSAARPSGEPGCSCAQPAAEAAAPGWAQARGHPGGELEAAASAAGDAGWPNKHTLRILQDFSSDPSSNLTSHSLEKLPPAAEAAEGAPPGQDPGVRRPPDPAHRPLPRDPGPRGPVLPPGLSGDGSLLTRLFQHPLYQVPIPPLTEGDVLFNVNSDIRFNPKAATAENPDWPHEGPEDEFLPTGEAAVDSYPNWLKFHIGINRYELYSRHNPAVGALLQDLGTQKITSVAMKSGGTQLKLIMTFQNYGQALFKPMKQTREQETPPDFFYFSDYERHNAEIAAFHLDRILDFRRVPPVAGRLVNMTKEIRDVTRDKKLWRTFFISPANNVCFYGECSYYCSTEHALCGKPDQIEGSLAAFLPDLALAKRKTWRNPWRRSYHKRKKAEWEVDPDYCEEVRQTPPYDSSHRLLDVMDMTIFDFLMGNMDRHHYETFEKFGNETFIIHLDNGRGFGKHSHDELSILVPLQQCCRIRRSTYLRLQLLAQEEHRLSLLMAEALRADRVAPVLFQPHLEALDRRLRIVLRAVGDCVEKDGLHSVVEDDLGPEHRAAAGRHDEL
With B3, the “upward band shift of beta casein on anti-beta-casein Western blot (2 bovine kinases together, pMOZ702+pMOZ14+pMOZ15)” value in data set [5] is “In lanes containing beta casein coexpressed with 1 human kinase, 2 human kinases, 1 bovine kinase or 2 bovine kinases the bands are shifted upward on the gel relative to the sample transformed with only beta casein”.

B4: recombinant H. sapiens Fam20A expressed from pMOZ12 (protein)
chain: QLRPRERPRGCPCTGRASSLARDSAAAASDPGTIVHNFSRTEPRTEPAGGSHSGSSSKLQALFAHPLYNVPEEPPLLGAEDSLLASQEALRYYRRKVARWNRRHKMYREQMNLTSLDPPLQLRLEASWVQFHLGINRHGLYSRSSPVVSKLLQDMRHFPTISADYSQDEKALLGACDCTQIVKPSGVHLKLVLRFSDFGKAMFKPMRQQRDEETPVDFFYFIDFQRHNAEIAAFHLDRILDFRRVPPTVGRIVNVTKEILEVTKNEILQSVFFVSPASNVCFFAKCPYMCKTEYAVCGNPHLLEGSLSAFLPSLNLAPRLSVPNPWIRSYTLAGKEEWEVNPLYCDTVKQIYPYNNSQRLLNVIDMAIFDFLIGNMDRHHYEMFTKFGDDGFLIHLDNARGFGRHSHDEISILSPLSQCCMIKKKTLLHLQLLAQADYRLSDVMRESLLEDQLSPVLTEPHLLALDRRLQTILRTVEGCIVAHGQQSVIVDGPVEQLAPDSGQANLTSHDEL
On to B4, for which, in data set [4], the “upward band shift of beta casein on anti-beta-casein Western blot (2 human kinases together, pMOZ702+pMOZ11+pMOZ12)” value is listed as “In lanes containing beta casein coexpressed with 1 human kinase, 2 human kinases, 1 bovine kinase or 2 bovine kinases the bands are shifted upward on the gel relative to the sample transformed with only beta casein”; the “upward band shift of beta casein on anti-beta-casein Western blot (co-expressed with HsFam20C and HsFam20A together, pMOZ702+pMOZ11+pMOZ12)” value is “In lanes containing beta casein coexpressed with 2 human kinases the bands are shifted upward on the gel relative to the sample transformed with only beta casein”.

B5: recombinant B. taurus Fam20A expressed from pMOZ15 (enzyme, from a related filing)
chain: MHVSSHLGPRVRSRLQPRERPLGCPCARRAASPAPGPAPSAPRRVEPSGGGDPGSKLRALFAHPLYNEPEEPPLLGPEDSLLAGPEALRYYRRKVARWNRRRKMYKEQLNLTSPEPPVQLRQEASWVQFHLGINRHGLYPRSSPVVSKLLQDMRHFPTISADYSQDEKALLGACDCSQIVKPSGVHLKLVLRFSDFGKAMFKPMRQQRDEETPEDFFYFIDFQRHNAEIAAFHLDRILDFRRVPPTVGRLVNVTREILEVTRNEILQSVFFVSPANNVCFFAKCPYMCKTEYAVCGSPHLLEGSLSAFLPSLNLAPRFSMPSPWIRSYSLAGREEWEVNPLYCEAVKQAYPHNSSSRLLNIIDMAIFDFLIGNMDRHHYEMFTKFGEDGFLIHLDNARGFGRHSHDEVSILAPLFQCCRIKRKTLLHLQLLAQADYRLSDVMRESLLEDQLSPVLTEPHLLALDRRLQTVLRTVQDCIEAHGEQSVVADGPVGQWAPDSSRANATSHDEL
As for B5, in data set [5], the “upward band shift of beta casein on anti-beta-casein Western blot (2 bovine kinases together, pMOZ702+pMOZ14+pMOZ15)” value was “In lanes containing beta casein coexpressed with 1 human kinase, 2 human kinases, 1 bovine kinase or 2 bovine kinases the bands are shifted upward on the gel relative to the sample transformed with only beta casein”.
